Data taken from US11806404B2, “Site specific homogeneous with KSP inhibitors” (BAYER PHARMA AKTIENGESELLSCHAFT, priority 2015, dated 2023).
Like-named read-outs stand apart in the source and are kept apart here.

Tests used:
KPL4 = experiment: MTT assay, cytotoxic effects of the ADCs; type: cell-based; conditions: Homo sapiens, metabolite, read-out: KPL-4 IC50 [M] MTT Assay
Protocol: (§1) The analysis of the cytotoxic effects of the anti-TWEAKR-ADCs was carried out with various cell lines:
KPL4: human breast carcinoma cells, standard medium: RPMI 1640+GlutaMAX I+10% FBS, cell bank, Bayer Pharma AG (identity checked and confirmed on 19 Jul. 2012 at DSMZ), Berlin, ERBB2-positive.
(§2) The cells are cultivated by a standard method, as indicated in the […] (ATCC) for the respective cell lines.
(§3) The test was carried out by detaching the cells with a solution of Accutase in PBS (Biochrom AG #L2143), pelleting, resuspending in culture medium, counting and seeding the cells into a 96-well culture plate with white bottom (Costar #3610, LoVo:1000 cells/well, SK-HEP-1: 1200 cell/well, NCI H292: 1500 cell/well in a total volume of 100 μL). The cells were then incubated in an incubator at 37° C. and 5% carbon dioxide. After 48 h, the antibody drug conjugates were added in 10 μl of culture medium in concentrations of from 10^−5M to 10^−13M to the cells (triplicates) and incubated in an incubator at 37° C. and 5% carbon dioxide. After 96h, the proliferation was measured using the MTT assay (ATCC, Manassas, Va., USA, catalogue No. 30-1010K). […] The dye formed was detected at 570 nm (Infinite M1000 pro, Fa. Tecan). Based on the measured data the IC50 value was determined from the DRC (dose response curve). […]

[1] = Caco-2 flux assay for cell permeability; type: in vitro ADME; conditions: human; Caco-2, 2 hours
Protocol: The cell permeability of a substance can be investigated by means of in vitro testing in a flux assay using Caco-2 cells [M. D. Troutman and D. R. Thakker, Pharm. Res. 20 (8), 1210-1224 (2003)]. For this purpose, the cells were cultured for 15-16 days on 24-well filter plates. For the determination of permeation, the respective working example was applied in a HEPES buffer to the cells either apically (A) or basally (B) and incubated for 2 hours. After 0 hours and after 2 hours, samples were taken from the cis and trans compartments. The samples were separated by HPLC (Agilent 1200, Böblingen, Germany) using reverse phase columns. The HPLC system was coupled via a Turbo Ion Spray Interface to a Triple Quadropol mass spectrometer API 4000 (Applied Biosystems Applera, Darmstadt, Germany). The permeability was evaluated on the basis of a Papp value, which was calculated using the formula published by Schwab et al. [D. Schwab et al., J. Med. Chem. 46, 1716-1725 (2003)].
Of critical importance for toxophores which are released intracellularly is the permeability from B to A [Papp (B−A)] and the ratio of Papp (B−A) to Papp (A−B) (efflux ratio): the lower this permeability, the slower the active and passive transport processes of the substance through the monolayer of Caco-2 cells.

NCI-H292 = experiment: MTT assay, cytotoxic effects of the ADCs; type: cell-based; conditions: Homo sapiens, metabolite
Protocol: as §1
NCI-H292: human mucoepidermoid lung carcinoma cells, ATCC-CRL-1848, standard medium: RPMI 1640 (Biochrom; #FG1215, stab. glutamine)+10% FCS (Biochrom; #S0415), TWEAKR-positive, EGFR-positive.
as §2, §3

[2] = target: hTNFRSF12 amino acids a28-80-hIgG1-Fc (TPP-599) (Homo sapiens (Human), UniProt Q9NP84); experiment: ELISA mutein binding (wild type); conditions: coated 62 ng/ml, biotinylated IgG; read-out: Effect of muteins on antibody binding: WT
Protocol: (§4) To this end, the full-length ectodomain (amino acids 28-80) having the individual amino acid substitutions below were expressed and purified as Fc fusion proteins: T33Q; S40R; W42A; M50A; R56P; H60K; L65Q.
(§5) To obtain dose-reaction data, the different TWEAKR-Fc muteins were coated at a low concentration (62 ng/ml) onto a 384-well Maxisorb ELISA plate, and a serial 2-fold dilution of biotinylated IgG beginning with a concentration of 100 nM was used as a soluble binding partner. Detection was carried out using streptavidin-HRP and Amplex Red.
(§6) IgGs were biotinylated using an about 2-fold molar excess of biotin-LC-NHS (Pierce; Cat. No. 21347) according to the instructions of the manufacturer and desalted using Zeba desalting columns (Pierce; Cat. No. 89889). The dose-reaction data were fitted and the IC50s were determined.

[3] = target: hTNFRSF12 amino acids a28-80-T33Q-hIgG1-Fc (TPP-1986) (Homo sapiens (Human), UniProt Q9NP84, T33Q); experiment: ELISA mutein binding; conditions: mutein coated 62 ng/ml, biotinylated IgG; read-out: Effect of muteins on antibody binding: T33Q
Protocol: as §4, §5, §6

[4] = target: hTNFRSF12 amino acids a28-80-R56P-hIgG1-Fc (TPP-2683) (Homo sapiens (Human), UniProt Q9NP84, R56P); experiment: ELISA mutein binding; conditions: mutein coated 62 ng/ml, biotinylated IgG; read-out: Effect of muteins on antibody binding: R56P
Protocol: as §4, §5, §6

[5] = target: hTNFRSF12 amino acids a28-80-W42A-hIgG1-Fc (TPP-1985) (Homo sapiens (Human), UniProt Q9NP84, W42A); experiment: ELISA mutein binding; conditions: mutein coated 62 ng/ml, biotinylated IgG; read-out: Effect of muteins on antibody binding: W42A
Protocol: as §4, §5, §6

[6] = target: hTNFRSF12 amino acids a28-80-M50A-hIgG1-Fc (TPP-1988) (Homo sapiens (Human), UniProt Q9NP84, M50A); experiment: ELISA mutein binding; conditions: mutein coated 62 ng/ml, biotinylated IgG; read-out: Effect of muteins on antibody binding: M50A
Protocol: as §4, §5, §6

[7] = target: hTNFRSF12 amino acids a28-80-L65Q-hIgG1-Fc (TPP-1990) (Homo sapiens (Human), UniProt Q9NP84, L65Q); experiment: ELISA mutein binding; conditions: mutein coated 62 ng/ml, biotinylated IgG; read-out: Effect of muteins on antibody binding: L65Q
Protocol: as §4, §5, §6

[8] = target: hTNFRSF12 amino acids a28-80-S40R-hIgG1-Fc (TPP-1987) (Homo sapiens (Human), UniProt Q9NP84, S40R); experiment: ELISA mutein binding; conditions: mutein coated 62 ng/ml, biotinylated IgG; read-out: Effect of muteins on antibody binding: S40R
Protocol: as §4, §5, §6

[9] = target: hTNFRSF12 amino acids a28-80-H60K-hIgG1-Fc (TPP-1989) (Homo sapiens (Human), UniProt Q9NP84, H60K); experiment: ELISA mutein binding; conditions: mutein coated 62 ng/ml, biotinylated IgG; read-out: Effect of muteins on antibody binding: H60K
Protocol: as §4, §5, §6

TWEAKR = TWEAKR (Homo sapiens (Human), UniProt Q9NP84); conditions: literature values; read-out: published KD values; cited from earlier work
[10] = target: recombinant human TWEAKR protein (TPP-2305) (Homo sapiens (Human), UniProt Q9NP84); experiment: Biacore surface plasmon resonance binding affinity; conditions: for ka / kd: monovalent, 1:1 binding model
Protocol: Binding affinities of anti-TWEAKR antibodies were examined using surface plasmon resonance analysis on a Biacore T100 instrument (GE Healthcare Biacore, Inc.). The antibodies were immobilized on a CMS sensor chip using an indirect capture reagent, anti-human IgG(Fc). Reagents of the “Human Antibody Capture Kit” (BR-1008-39, GE Healthcare Biacore, Inc.) were used as described by the manufacturer. Anti-TWEAKR antibodies were injected at a concentration of 10 μg/ml at 10 μl/min for 10 sec.
Sensorgrams were generated after in-line reference cell correction, followed by subtraction of the buffer sample. The dissociation constant (KD) was calculated based on the ratio of association (kon) and dissociation (koff) constants, obtained by fitting sensorgrams using a 1:1 first order binding model.

[11] = Biacore, read-out: KD (affinity to TWEAKR)

IC50 [2]	IC50 [3]	IC50 [4]	IC50 [5]	IC50 [6]	IC50 [7]	IC50 [8]	IC50 [9]	Kd [10, 11]	ka [10]	kd [10]	Kd ([10]; monovalent KD, read-out: KD)	Molecule	IC50 (KPL4)	Papp B→A at 2 h [1]	IC50 (NCI-H292)	Kd (TWEAKR)
												CC(=O)N[C@@H](CCCCNC(=O)CC[C@H](N)C(=O)O)C(=O)NCCNC(=O)[C@@H](N)CCN(C(=O)CO)[C@@H](c1cc(-c2cc(F)ccc2F)cn1Cc1ccccc1)C(C)(C)C.O=C(O)C(F)(F)F [Example M100, N^6-L-gamma-glutamyl-N^2-acetyl-N-[2-({(2S)-2-amino-4-[{(1R)-1-[1-benzyl-4-(2,5-difluorophenyl)-1H-pyrrol-2-yl]-2,2-dimethylpropyl}(glycoloyl)amino]butanoyl}amino)ethyl]-L-lysinamide trifluoro acetate (1:1)]	> 5e-07 M	0.12 ×10⁻⁶ cm/s	> 500 nM	
0.001 to 0.15 nM	0.001 to 0.15 nM	> 50 nM	> 50 nM	0.001 to 0.15 nM	0.001 to 0.15 nM	0.001 to 0.15 nM	0.001 to 0.15 nM	0.7 to 3.7 nM	1.64e+07 M⁻¹ s⁻¹	0.0285 s⁻¹		18.3.3(TPP-2193): comparative anti-TWEAKR antibody; variable domains "obtained from the patent literature WO2009/020933", constant region added, "resulting in full-length IgGs" (antibody, Mus Musculus) heavy: EVKLGESGGGLVQPGGSMKLSCVASGFPFTKYWMNWVRQSPEKGLEWVAEIRLKSDNYATHYAESAKGRFTISRDDSRSSVYLQMNNLRAEDTAIYYCSPTYADTMDYWGQGTSVTVSSAKTTAPSVYPLAPVCGDTTGSSVTLGCLVKGYFPEPVTLTWNSGSLSSGVHTFPAVLQSDLYTLSSSVTVTSSTWPSQSITCNVAHPASSTKVDKKIEPRGPTIKPCPPCKCPAPNLLGGPSVFIFPPKIKDVLMISLSPIVTCVVVDVSEDDPDVQISWFVNNVEVHTAQTQTHREDYNSTLRVVSALPIQHQDWMSGKEFKCKVNNKDLPAPIERTISKPKGSVRAPQVYVLPPPEEEMTKKQVTLTCMVTDFMPEDIYVEWTNNGKTELNYKNTEPVLDSDGSYFMYSKLRVEKKNWVERNSYSCSVVHEGLHNHHTTKSFSRTPG light: DIVLTQSPASLAVSLGQRATISCKASQSVSTSTYSYMQWYQQRPGQSPKLLIKYASKLDSGVPARFSGSGSGTDFTLNIHPVEEEDTATYYCQHSWELPYTFGGGTRLEIKRADAAPTVSIFPPSSEQLTSGGASVVCFLNNFYPKDINVKWKIDGSERQNGVLNSWTDQDSKDSTYSMSSTLTLTKDEYERHNSYTCEATHKTSTSPIVKSFNRNEC				0.2 nM
								0.7 to 3.7 nM	1.32e+06 M⁻¹ s⁻¹	0.000564 s⁻¹	0.4 nM	P2D3(TPP-2196): comparative anti-TWEAKR antibody; variable domains from patent literature "WO2009/020933 and WO2009/140177", constant region added, "resulting in full-length IgGs" (antibody, Mus Musculus) heavy: QVSLKESGPGILQPSQTLSLTCSFSGFSLSTSGMGVSWIRQPSGKGLEWLAHIYWDDDKRYNPSLKSRLTISKDTSRNQVFLKITSVDTADTATYYCARRGPDYYGYYPMDYWGQGTSVTVSAKTTAPSVYPLAPVCGDTTGSSVTLGCLVKGYFPEPVTLTWNSGSLSSGVHTFPAVLQSDLYTLSSSVTVTSSTWPSQSITCNVAHPASSTKVDKKIEPRGPTIKPCPPCKCPAPNLLGGPSVFIFPPKIKDVLMISLSPIVTCVVVDVSEDDPDVQISWFVNNVEVHTAQTQTHREDYNSTLRVVSALPIQHQDWMSGKEFKCKVNNKDLPAPIERTISKPKGSVRAPQVYVLPPPEEEMTKKQVTLTCMVTDFMPEDIYVEWTNNGKTELNYKNTEPVLDSDGSYFMYSKLRVEKKNWVERNSYSCSVVHEGLHNHHTTKSFSRTPG light: DIVLTQSPASLAVSLGQRATISCRASKSVSTSSYSYMHWYQQKPGQPPKLLIKYTSNLESGVPARFSGSGSGTDFILNIHPVEEEDAATYYCQHSRELPWTFGGGTKLEIKRADAAPTVSIFPPSSEQLTSGGASVVCFLNNFYPKDINVKWKIDGSERQNGVLNSWTDQDSKDSTYSMSSTLTLTKDEYERHNSYTCEATHKTSTSPIVKSFNRNEC				
